Measured values taken from the nanobody polyreactivity screen of Harvey et al. (2022).

Experiment: yeast display, Sf9 membrane polyspecificity reagent, FACS + sequencing; frameworks hold sequencing errors
Outline: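 Sorting gates, low and high (top ~1%), were placed on anti-HA fluorescence to track expression and on streptavidin fluorescence to track reagent binding. A clone's polyreactivity label is taken from the gate it came out of. The reagent was 10% biotinylated, detergent-solubilized Sf9 membrane, applied for 1 hour at 4 °C to galactose-induced yeast display cells.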

Sequence	polyreactivity (PSR sort gate)
QVQLVESGRGLVQAGGSLRLSCAASGITFTAYAMGWYRQAPGLERQLVATINSTGITNYADSLKGRFTISRDNAKNTVYLQMNSLKPEDTAVYYCAADLLYISSYDGMDYWGQGTQVTVSS	low polyreactivity
QVQLVESGGGLVQAGGSLRLSCAASGFTFSWYALGWYRQAPGKERELVAAINWSGTSTYYADSVKGRFTISRDNAKNTVYLQMNSLKPEDTAVYYCNVVVYRWSPVSKLDYWGQGTQVTVSS	high polyreactivity
QVQLVESCGGLVQAGGRLRLICAASGRTFTYNAMGWYIQAPGQERELVAAINFSGVSTYYADSVKGRFTISRDNAKYTVYLQMNSLKPEDTAVYSCNTVGYHYESDYWGQGTQVTVSS	high polyreactivity
QVWLQESGGGLVQACGSLRLRCAASGTISRDIFMGWYRQAPGKEREFVATIAQGGITNYADSVKGRFTISRDNAKNTVYLQMNSVKPGDTAVYYCAARDGNCYWFYYLGQGTQVTVSS	high polyreactivity
QVQLVESGGGLVQAGGSLRLICAASGSILGTYAMGWYRQAPGNDRELVAAISSSGRTSYADSVKGRFTISRDNAKNTVYLQMNSLKPEETAVYYCNASNYIFLINDPDAAPWLYDYWGQGSQVTVSS	low polyreactivity
QVQLVESGGGLVQAGGSLRLSCAASGSTFGAYAMGWYRQAPGKERELVAAINRGTSTNYADSVKGRFTISRDNAKNTVYLQMNSLKPEDTAVYYCAVAVLPWQLYSESYAEYDYWGQGTQVTVSS	low polyreactivity
QVQLVESGGGLVQAGGSLRLSCAASGRTFKQYAMGWYRQAPGKERELVAAISRTGGRTYYADSVKGRFTISRDNAKNTVYLQMNSLKPEDTAVYYCNAVYYWYKGDYWGQGTQVTVSS	high polyreactivity
QVQLVESGGGLVQAGGSLRLSCAAYGRYYSRNPMGWYRQAPGKERELVAAITWRGGSTYYADSVKGRFTISRDNAKNTVFLQMISLKPEDTAVYYCNRDYRQYGYAYSGRYYWGHGTQVTVSS	high polyreactivity
QVQLVESGGRLVQAGGSLRLSCAASGFTFGAYAMGWYRQAPGKERELVATIRYSGDSTYYADSVKGRFTISRDNAKNTVYLQMNSLKPEDTAVSSCAAYSTEGGGSPDWFESFDYWGQGTQVTVSS	low polyreactivity
QVQLVESGGGLVQAGGRLRLSCAASGLTFYRNAMGWYRQAPGKERELVAAITTSGARTYYADSVKGRFTISRDNAKNTVYLRMNSLKPDVTAVYYCNAPVRRDVAYGYWGQGTQVTVSS	high polyreactivity
QVQLVESGGGLVQAGGSIRLSCAASGRIFRYNAMGWYRQAPGKERELVAAISGSGDRTYYADSVKGRFTISRDTAKNTVYLQMNSLKPEDTAVYDCAADVVWRQYGSWFYYWGQGTQVTVSS	high polyreactivity
QVQLVESGGGLVQAGGSLRLSCAAYGSIFDANAMGWYRQAPGKEREFLAAINCTGGSTYYAESVKGRFTISRDYAKNTVYLQMNILKPEDTAGYYCAAEWWYQNNPEIYYYWGQGIQVTVSS	high polyreactivity
QVQLVESGGGLVQAGGSLRVSCAASGFTFRHNAMGWYRQAPGKERELVAVISSTGTYADSVKGRFTISRDNAKNTVYLQMNSLKPEDTAVYYCAAGSDYGGSYAYDYWGQGTQVTVSS	low polyreactivity
QFQLVESGGGLVQAGGSLRLSCAASGIIFAGNAMGWYRQAPGKERELVAVITSVGSTYYADSVTGRFTISRDNAKNTVYLQMNSLKPEDTAVYYCNAVSWWRYDYCGQGTQVTVSS	high polyreactivity
QVQLVDSGGGSVQAGGSLRLSCAASGRTFPYYAMGWYRQAPGKERELVAAITIGNTNYADSVKGRFTISRDNAKNTVYLQMNSLKPEDTAVYYCNASHVSHYRARDYWGQGTQVTVSS	low polyreactivity
QVQLVESGGGLVQAGGSLRLSCAASGSTSYNAMGWYRQAPGKERELVAAISDGGGSTYYADSVKGRFTISRDNAKNTVYLQMNSLKPEDTAVYYCAADTITGDGYWAQGTQVTVSS	low polyreactivity
QVQLVESGGGLVQAGGSLRLSCAASGSTFYYYAMGWYRQAPGKDRELVAAISKRDGRTYYADSVKGRFTISRDNAKNTVYLQMNSLKPEDTAVYYCNAYSYGHYYWGQGTQVTVSS	high polyreactivity
